Data: paper PMC4703059

Molecular target: Full-length wt Lst7 (K. lactis) with C-terminal Strep tag (Kluyveromyces lactis)
Experiment: AUC + SEC-MALS; purified K. lactis Lst7/Lst4 complex; AUC sedimentation velocity with interference data at 0.15 mg/ml, SEDFIT; SEC-MALS of 50 µg in 50 µl on TSKgel SuperSW2000 in PBS, 0.35 ml/min

B1: Engineered Lst4 (K. lactis) aa58-714 with a deletion of the intra-DENN loop (aa 388-534) (domain or fragment)
chain: NDRLHNGGFRLIISQELGHVTSRNNYQVVLDHSSVNFHTGAHIPLNELKDYIFGSSIRTIDYSASSDKIKVVKSANIVLFTRIFYLNEKSTLRIAISCCVTDDVLPVLTECWPHISSFLDQCENTLLKYLAKNDTQFLPHDWKARNCIEVAAVLQTFQRKIIPLLSGYSDTPRLFLYPMDSIPYIKTWVKYVTNWIELKDGPRVRFLPILLAKLRYDFASLLKENSNTRIVILTGNMNVANRLIFILTAFLGPHFRGTLHKSINSQGCPSPAGRKMSNMSGASDFPFELKPSNSSITETNKGWEIPRIKRDPTFSVTSVSSDETGVQTFILNDAFADLVIDPPSYDTTVSNEKHGEIVEVNMASPRKQRNNQNQELLRRFTSYTPHYNQWFQLQACQITTESENKVIHSMKRDLTYADQDPCKKDKSTSTLLISLRSREIKQVTIVRDTNNRFIQRTKKILQNGKVGPVSRAMLSGIETTDQHLKKLMECNNDNEALVSLFNDIVTCAST
stoichiometry N: 1
